According to patent US20180037910:

Tests used:
[1] = test system: Il2rg ZFN-1 (synthetic construct); test: cell_activity; details: ZFN-1+ZFN-2 pair with LTVEC versus LTVEC alone, fold increase in targeting efficiency; 6 bp spacer; mouse F1H4 ES cells
[2] = test system: Il2rg ZFN-2 (synthetic construct); test: cell_activity; details: ZFN-1+ZFN-2 pair with LTVEC versus LTVEC alone, fold increase in targeting efficiency; 6 bp spacer; mouse F1H4 ES cells

AGCTCCAAGGTCCTC (double strand) [Il2rg exon 1 ZFN-1 half-site (sense strand)]
activity [1]: 4 fold

GTCTTCATTCGCACT (double strand) [Il2rg exon 1 ZFN-2 half-site (anti-sense strand)]
activity [2]: 4 fold
